{"source": "patent US20250188184A1", "binders": {"B1": {"name": "CD3.75 (AC3404) (bispecific antibody, V domains shown)", "VH": "EVQLLESGGGIVQPGGSLKLSCAASGFTFNTYAMNWVRQAPGKGLEWVARIRSKWNNYATYYADSVKDRFTISRDDSKNTVYLQMNNLKTEDTAVYYCVRHENFGNSYVSWFAHWGQGTLVTVSS", "VL": "ELVVTQEPSLTVSPGGTVTLTCRSSNGAVTSSNYANWVQQKPGQAPRGLIGGTNKRAPGTPARFSGSLLGGKAALTLSGVQPEDEAVYYCALWYPNLWVFGGGTKLTVL"}, "B2": {"name": "CD3.77 (AC3406) (bispecific antibody, V domains shown)", "VH": "B1 VH with W55Y, N56E", "VL": "B1 VL"}, "B3": {"name": "CD3.78 (AC3407) (bispecific antibody, V domains shown)", "VH": "B1 VH with W55Y, N57D", "VL": "B1 VL"}, "B4": {"name": "CD3.79 (AC3408) (bispecific antibody, V domains shown)", "VH": "B1 VH with W55Y, N57E", "VL": "B1 VL"}, "B5": {"name": "CD3.80 (AC3409) (bispecific antibody, V domains shown)", "VH": "B1 VH with W55Y, Y58G", "VL": "B1 VL"}, "B6": {"name": "CD3.81 (AC3410) (bispecific antibody, V domains shown)", "VH": "B1 VH with W55Y, Y58F", "VL": "B1 VL"}, "B7": {"name": "CD3.82 (AC3411) (bispecific antibody, V domains shown)", "VH": "B1 VH with W55Y, Y58W", "VL": "B1 VL"}, "B8": {"name": "CD3.83 (AC3412) (bispecific antibody, V domains shown)", "VH": "B1 VH with W55Y, A59G", "VL": "B1 VL"}, "B9": {"name": "CD3.84 (AC3413) (bispecific antibody, V domains shown)", "VH": "B1 VH with W55Y, A59T", "VL": "B1 VL"}, "B10": {"name": "CD3.85 (AC3414) (bispecific antibody, V domains shown)", "VH": "B1 VH with W55Y, Y61D", "VL": "B1 VL"}, "B11": {"name": "CD3.86 (AC3415) (bispecific antibody, V domains shown)", "VH": "B1 VH with W55Y, Y61E", "VL": "B1 VL"}, "B12": {"name": "CD3.87 (AC3416) (bispecific antibody, V domains shown)", "VH": "B1 VH with W55Y, Y61T", "VL": "B1 VL"}, "B13": {"name": "CD3.88 (AC3417) (bispecific antibody, V domains shown)", "VH": "B1 VH with W55Y, Y62D", "VL": "B1 VL"}, "B14": {"name": "CD3.89 (AC3418) (bispecific antibody, V domains shown)", "VH": "B1 VH with W55Y, Y62E", "VL": "B1 VL"}, "B15": {"name": "CD3.90 (AC3419) (bispecific antibody, V domains shown)", "VH": "B1 VH with W55Y, Y62Q", "VL": "B1 VL"}, "B16": {"name": "CD3.91 (AC3420) (bispecific antibody, V domains shown)", "VH": "B1 VH with W55Y, Y62G", "VL": "B1 VL"}, "B17": {"name": "CD3.92 (AC3421) (bispecific antibody, V domains shown)", "VH": "B1 VH with W55Y, Y62W", "VL": "B1 VL"}, "B18": {"name": "CD3.93 (AC3422) (bispecific antibody, V domains shown)", "VH": "B1 VH with W55Y, A63K", "VL": "B1 VL"}, "B19": {"name": "CD3.94 (AC3423) (bispecific antibody, V domains shown)", "VH": "B1 VH with W55Y, A63P", "VL": "B1 VL"}, "B20": {"name": "CD3.95 (AC3424) (bispecific antibody, V domains shown)", "VH": "B1 VH with W55Y, D68G", "VL": "B1 VL"}, "B21": {"name": "CD3.96 (AC3425) (bispecific antibody, V domains shown)", "VH": "B1 VH with W55Y, Y82D", "VL": "B1 VL"}, "B22": {"name": "CD3.97 (AC3426) (bispecific antibody, V domains shown)", "VH": "B1 VH with W55Y, Y82G", "VL": "B1 VL"}, "B23": {"name": "CD3.98 (AC3427) (bispecific antibody, V domains shown)", "VH": "B1 VH with W55Y, Y82S", "VL": "B1 VL"}, "B24": {"name": "CD3.99 (AC3428) (bispecific antibody, V domains shown)", "VH": "B1 VH with W55Y, N87E", "VL": "B1 VL"}, "B25": {"name": "CD3.100 (AC3429) (bispecific antibody, V domains shown)", "VH": "B1 VH with W55Y, N87Q", "VL": "B1 VL"}, "B26": {"name": "CD3.101 (AC3430) (bispecific antibody, V domains shown)", "VH": "B1 VH with W55Y, N87S", "VL": "B1 VL"}, "B27": {"name": "CD3.102 (AC3431) (bispecific antibody, V domains shown)", "VH": "B1 VH with W55Y, N87Y", "VL": "B1 VL"}, "B28": {"name": "CD3.104 (AC3433) (bispecific antibody, V domains shown)", "VH": "B1 VH with W55Y", "VL": "B1 VL with L69Q"}, "B29": {"name": "CD3.105 (AC3434) (bispecific antibody, V domains shown)", "VH": "B1 VH with W55Y", "VL": "B1 VL with G70E"}, "B30": {"name": "CD3.106 (AC3435) (bispecific antibody, V domains shown)", "VH": "B1 VH with W55Y", "VL": "B1 VL with L69D"}, "B31": {"name": "CD3.107 (AC3436) (bispecific antibody, V domains shown)", "VH": "B1 VH with W55Y", "VL": "B1 VL with L68S"}, "B32": {"name": "CD3.108 (AC3437) (bispecific antibody, V domains shown)", "VH": "B1 VH with W55Y", "VL": "B1 VL with L68K"}, "B33": {"name": "CD3.109 (AC3438) (bispecific antibody, V domains shown)", "VH": "B1 VH with W55Y", "VL": "B1 VL with L68N"}, "B34": {"name": "CD3.110 (AC3439) (bispecific antibody, V domains shown)", "VH": "B1 VH with W55Y", "VL": "B1 VL with L68T"}}, "note": "Changes are numbered by the printed parent chain."}
{"biological_target": "CD3 (target of the Pool 1 CD3.23 screen)", "sequence (P07766 23-126)": "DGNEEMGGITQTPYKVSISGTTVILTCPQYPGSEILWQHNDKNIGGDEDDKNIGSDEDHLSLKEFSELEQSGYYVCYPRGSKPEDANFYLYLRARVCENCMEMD", "experiment": "Octet, crude lysate", "units": {"Kd": "nM"}}
{"binder": "B1", "Kd": 10.5}
{"binder": "B2", "Kd": 575}
{"binder": "B3", "Kd": 7.4}
{"binder": "B4", "Kd": 8.3}
{"binder": "B5", "Kd": 11.3}
{"binder": "B6", "Kd": 6.1}
{"binder": "B7", "Kd": 7.8}
{"binder": "B8", "Kd": 8.2}
{"binder": "B9", "Kd": 10.7}
{"binder": "B10", "Kd": 939}
{"binder": "B11", "Kd": 183}
{"binder": "B12", "Kd": 17.9}
{"binder": "B13", "Kd": 63.2}
{"binder": "B14", "Kd": 9.7}
{"binder": "B15", "Kd": 7.2}
{"binder": "B16", "Kd": 8.3}
{"binder": "B17", "Kd": 37.2}
{"binder": "B18", "Kd": 8}
{"binder": "B19", "Kd": 8.2}
{"binder": "B20", "Kd": 5.4}
{"binder": "B21", "Kd": 9.8}
{"binder": "B22", "Kd": 121}
{"binder": "B23", "Kd": 9.6}
{"binder": "B24", "Kd": 5.9}
{"binder": "B25", "Kd": 7.1}
{"binder": "B26", "Kd": 4.8}
{"binder": "B27", "Kd": 5.5}
{"binder": "B28", "Kd": 4.6}
{"binder": "B29", "Kd": 4.9}
{"binder": "B30", "Kd": 6.1}
{"binder": "B31", "Kd": 7.3}
{"binder": "B32", "Kd": 3.2}
{"binder": "B33", "Kd": 8.3}
{"binder": "B34", "Kd": 8.9}
